Each block holds one binder with its values, some of them ahead of it.
Tests used:
[1] = molecular target: the molecule itself; assay: SEC; purified Atg11^ΔC on a Superose 6 column
[2] = molecular target: T1, recombinant purified Atg11 (Atg11-His6) (yeast, UniProt Q12527 1-1178, Atto565 label in the GUV experiments); assay: cross-linking; Sulfo-LC-SDA (spacer arm 12.5 Å) conjugated to primary amines of Atg32^SE, mixed with Atg11, 365 nm UV light for up to 15 min, SDS-PAGE; details: both partners purified
T1 construct: N-terminal residual glycine-proline from PreScission protease digestion; Atg11, yeast; expressed from pCoofy37-Atg11; measured molecular weight 136 kDa; also called His-tagged Atg11; Atg11^Atto565; source: E. coli BL21 (DE3), coexpressed with chaperones from pG-KJE8, purified (Ni-NTA, PreScission digestion, gel filtration); not shown: His6, C-terminal, kept
T1 sequence: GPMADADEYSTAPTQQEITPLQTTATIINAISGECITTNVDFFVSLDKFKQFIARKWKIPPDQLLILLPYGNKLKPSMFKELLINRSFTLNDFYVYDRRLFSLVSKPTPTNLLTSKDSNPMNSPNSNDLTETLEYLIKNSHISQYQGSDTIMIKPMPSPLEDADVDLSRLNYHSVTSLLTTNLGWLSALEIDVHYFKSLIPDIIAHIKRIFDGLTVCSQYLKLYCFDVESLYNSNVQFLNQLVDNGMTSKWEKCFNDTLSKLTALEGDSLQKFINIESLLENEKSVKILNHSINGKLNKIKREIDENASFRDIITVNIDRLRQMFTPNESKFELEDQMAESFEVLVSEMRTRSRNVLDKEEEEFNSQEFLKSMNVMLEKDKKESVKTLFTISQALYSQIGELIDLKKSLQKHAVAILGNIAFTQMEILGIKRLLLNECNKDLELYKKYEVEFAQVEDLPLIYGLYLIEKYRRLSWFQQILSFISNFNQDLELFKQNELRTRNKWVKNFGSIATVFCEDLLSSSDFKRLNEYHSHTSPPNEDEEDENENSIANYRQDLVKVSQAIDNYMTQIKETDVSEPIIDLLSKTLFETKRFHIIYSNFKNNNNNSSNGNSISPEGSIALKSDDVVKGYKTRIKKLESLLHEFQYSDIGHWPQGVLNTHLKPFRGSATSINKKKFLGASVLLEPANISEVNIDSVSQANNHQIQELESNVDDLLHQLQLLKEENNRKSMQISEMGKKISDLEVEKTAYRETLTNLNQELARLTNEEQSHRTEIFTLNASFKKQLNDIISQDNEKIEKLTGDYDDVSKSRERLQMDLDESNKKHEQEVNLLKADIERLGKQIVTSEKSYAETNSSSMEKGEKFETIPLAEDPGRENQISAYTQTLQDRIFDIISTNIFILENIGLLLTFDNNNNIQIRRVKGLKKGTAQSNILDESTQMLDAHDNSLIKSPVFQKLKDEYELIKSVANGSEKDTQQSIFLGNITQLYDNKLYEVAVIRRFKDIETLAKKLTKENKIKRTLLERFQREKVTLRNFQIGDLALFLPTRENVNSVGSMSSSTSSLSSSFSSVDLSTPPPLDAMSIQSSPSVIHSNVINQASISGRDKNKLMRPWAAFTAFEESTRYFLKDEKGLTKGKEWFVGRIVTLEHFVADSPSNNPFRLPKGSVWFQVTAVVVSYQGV

[3] = molecular target: T2, myc-tagged full length Atg11 (S. cerevisiae, UniProt Q12527 1-1178); assay: co-IP; IP of myc-tagged Atg11 (anti-myc, Protein A magnetic beads), co-IP of HA-tagged Atg9; lysates of WT, atg13Δ, atg17Δ, atg29Δ and atg31Δ cells, log phase and starved; 25 mM Tris-HCl pH 7.2, 150 mM NaCl, 0.2% NP-40; details: partners not purified
T2 construct: Atg11, scaffolding protein of selective autophagy, yeast; also called Atg11-myc; myc-Atg11; source: yeast cells expressing myc-tagged Atg11, in lysate
T2 sequence (looked up): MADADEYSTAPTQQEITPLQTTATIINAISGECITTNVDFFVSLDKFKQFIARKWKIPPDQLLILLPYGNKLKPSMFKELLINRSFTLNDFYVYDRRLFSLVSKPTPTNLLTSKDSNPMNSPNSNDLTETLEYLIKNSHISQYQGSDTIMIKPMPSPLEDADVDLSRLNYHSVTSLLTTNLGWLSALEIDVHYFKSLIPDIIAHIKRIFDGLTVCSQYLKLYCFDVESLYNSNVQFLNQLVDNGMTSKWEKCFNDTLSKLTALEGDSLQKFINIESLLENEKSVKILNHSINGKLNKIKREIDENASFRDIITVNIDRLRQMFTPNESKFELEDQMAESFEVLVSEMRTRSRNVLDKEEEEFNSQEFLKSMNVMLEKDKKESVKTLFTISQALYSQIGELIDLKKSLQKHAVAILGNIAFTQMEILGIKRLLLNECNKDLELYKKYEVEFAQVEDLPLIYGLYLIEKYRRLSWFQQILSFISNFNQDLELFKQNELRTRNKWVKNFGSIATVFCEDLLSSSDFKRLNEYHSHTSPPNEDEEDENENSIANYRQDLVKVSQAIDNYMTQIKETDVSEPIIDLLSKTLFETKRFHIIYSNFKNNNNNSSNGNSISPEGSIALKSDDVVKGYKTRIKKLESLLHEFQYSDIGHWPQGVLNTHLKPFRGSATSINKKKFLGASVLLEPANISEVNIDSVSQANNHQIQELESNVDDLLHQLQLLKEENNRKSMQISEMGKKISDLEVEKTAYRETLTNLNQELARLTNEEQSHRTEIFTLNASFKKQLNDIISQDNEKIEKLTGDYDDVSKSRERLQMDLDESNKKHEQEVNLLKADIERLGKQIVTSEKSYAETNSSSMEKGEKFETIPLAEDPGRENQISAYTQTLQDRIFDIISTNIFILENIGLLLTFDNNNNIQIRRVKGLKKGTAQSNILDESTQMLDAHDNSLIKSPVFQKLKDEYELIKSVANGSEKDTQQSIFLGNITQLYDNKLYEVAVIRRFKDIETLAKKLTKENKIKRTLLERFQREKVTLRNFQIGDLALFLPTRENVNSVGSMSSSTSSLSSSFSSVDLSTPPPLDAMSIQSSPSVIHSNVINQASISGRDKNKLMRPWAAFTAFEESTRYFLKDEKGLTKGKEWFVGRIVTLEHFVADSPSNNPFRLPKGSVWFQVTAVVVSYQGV

B1: recombinant purified Atg11^ΔC (residues 1-667) (domain or fragment, yeast, UniProt Q12527 1-667, looked up)
chain: MADADEYSTAPTQQEITPLQTTATIINAISGECITTNVDFFVSLDKFKQFIARKWKIPPDQLLILLPYGNKLKPSMFKELLINRSFTLNDFYVYDRRLFSLVSKPTPTNLLTSKDSNPMNSPNSNDLTETLEYLIKNSHISQYQGSDTIMIKPMPSPLEDADVDLSRLNYHSVTSLLTTNLGWLSALEIDVHYFKSLIPDIIAHIKRIFDGLTVCSQYLKLYCFDVESLYNSNVQFLNQLVDNGMTSKWEKCFNDTLSKLTALEGDSLQKFINIESLLENEKSVKILNHSINGKLNKIKREIDENASFRDIITVNIDRLRQMFTPNESKFELEDQMAESFEVLVSEMRTRSRNVLDKEEEEFNSQEFLKSMNVMLEKDKKESVKTLFTISQALYSQIGELIDLKKSLQKHAVAILGNIAFTQMEILGIKRLLLNECNKDLELYKKYEVEFAQVEDLPLIYGLYLIEKYRRLSWFQQILSFISNFNQDLELFKQNELRTRNKWVKNFGSIATVFCEDLLSSSDFKRLNEYHSHTSPPNEDEEDENENSIANYRQDLVKVSQAIDNYMTQIKETDVSEPIIDLLSKTLFETKRFHIIYSNFKNNNNNSSNGNSISPEGSIALKSDDVVKGYKTRIKKLESLLHEFQYSDIGHWPQGVLNTHLKPFRGSA
notes: Atg11, yeast, N-terminal fragment, residues 1-667; expressed from pCoofy37-Atg11^ΔC; molecular weight 78.2 kDa; Made from the same vector as full-length Atg11, so it may also carry a C-terminal His6 tag and an N-terminal Gly-Pro; also called purified Atg17-like domain of Atg11; source: E. coli BL21 (DE3), coexpressed with chaperones from pG-KJE8, purified
stoichiometry N [1]: 2

binding result [2]: binds
B2: Atg32^SE (Atg32^1-376 with the phosphomimetic mutation S114E) (domain or fragment, yeast, UniProt P40458 1-376, looked up)
chain: MVLEYQQREGKGSSSKSMPPDSSSTTIHTCSEAQTGEDKGLLDPHLSVLELLSKTGHSPSPMGQNLVTSIDISGNHNVNDSISGSWQAIQPLDLGASFIPERCSSQTTNGSILESSDTSEEEQELLQAPAADIINIIKQGQEGANVVSPSHPFKQLQKIISLPLPGKEKTPFNEQDDDGDEDEAFEEDSVTITKSLTSSTNSFVMPKLSLTQKNPVFRLLILGRTGSSFYQSIPKEYQSLFELPKYHDSATFPQYTGIVIIFQELREMVSLLNRIVQYSQGKPVIPICQPGQVIQVKNVLKSFLRNKLVKLLFPPVVVTNKRDLKKMFQRLQDLSLEYGEDVNEEDNDDEAIHTKSRSYCRNKKAENSKKKSPKSN
modifications: PacificBlue label in the GUV experiment; Sulfo-LC-SDA conjugated to primary amines in the cross-linking experiment
notes: Atg32, mitochondrial cargo receptor, yeast; N-terminal cytoplasmic domain, residues 1-376; also called Atg32^1-376,SE; Sulfo-LC-Atg32^SE

fold binding in atg17Δ against wild-type cells, upon starvation [3]: 4.1 fold
B3: HA-tagged Atg9 (natural protein, S. cerevisiae, UniProt Q12142 1-997, looked up)
chain: MERDEYQLPNSHGKNTFLSRIFGLQSDEVNPSLNSQEMSNFPLPDIERGSSLLHSTNDSREDVDENDLRVPESDQGTSTEEEDEVDEEQVQAYAPQISDGLDGDHQLNSVTSKENVLETEKSNLERLVEGSTDDSVPKVGQLSSEEEEDNEFINNDGFDDDTPLFQKSKIHEFSSKKSNTIEDGKRPLFFRHILQNNRPQRDTQKLFTSSNAIHHDKDKSANNGPRNINGNQKHGTKYFGSATQPRFTGSPLNNTNRFTKLFPLRKPNLLSNISVLNNTPEDRINTLSVKERALWKWANVENLDIFLQDVYNYYLGNGFYCIILEKILNICTLLFVVFVSTYMGHCVDYSKLPTSHRVSDIIIDKCYSNSITGFTKFFLWMFYFFVILKIVQLYFDVQKLSELQNFYKYLLNISDDELQTLPWQNVIQQLMYLKDQNAMTANVVEVKAKNRIDAHDVANRIMRRENYLIALYNSDILNLSLPIPLFRTNVLTKTLEWNINLCVMGFVFNESGFIKQSILKPSQREFTREELQKRFMLAGFLNIILAPFLVTYFVLLYFFRYFNEYKTSPGSIGARQYTPIAEWKFREYNELYHIFKKRISLSTTLANKYVDQFPKEKTNLFLKFVSFICGSFVAILAFLTVFDPENFLNFEITSDRSVIFYITILGAIWSVSRNTITQEYHVFDPEETLKELYEYTHYLPKEWEGRYHKEEIKLEFCKLYNLRIVILLRELTSLMITPFVLWFSLPSSAGRIVDFFRENSEYVDGLGYVCKYAMFNMKNIDGEDTHSMDEDSLTKKIAVNGSHTLNSKRRSKFTAEDHSDKDLANNKMLQSYVYFMDDYSNSENLTGKYQLPAKKGYPNNEGDSFLNNKYSWRKQFQPGQKPELFRIGKHALGPGHNISPAIYSTRNPGKNWDNNNNGDDIKNGTNNATAKNDDNNGNNDHEYVLTESFLDSGAFPNHDVIDHNKMLNSNYNGNGILNKGGVLGLVKEYYKKSDVGR
notes: Atg9, transmembrane autophagy protein, yeast; also called HA-Atg9; source: yeast cells expressing HA-tagged Atg9, in lysate

From publication PMC6687201, “Atg11 tethers Atg9 vesicles to initiate selective autophagy” (PLoS Biology, 2019)
